Laboratory results: article PMC5664961
pKd: −log10 of the molar value.

Columns and labels:
[1] = target: 6His-KCTD17 BTB domain (residues G20-K131), N-terminal hexahistidine tag kept (human); assay: SEC-MALS; BTB domains alone, injected at 50 µM; Shodex KW-803; 50 mM HEPES pH 7.5, 150 mM NaCl, 1 mM TCEP
[2] = target: 6His-KCTD17 BTB domain (residues G20-K131), N-terminal hexahistidine tag kept (human); assay: native MS; 6His-KCTD17 at 2 mg/ml exchanged into 50 mM ammonium acetate pH 6.5; electrospray, Agilent 6530 QTOF
[3] = target: 6His-KCTD17 BTB domain (residues G20-K131), N-terminal hexahistidine tag kept (human); assay: crystal structure; BTB domains alone, sitting-drop vapour diffusion at 20 and 4°C, data at 100 K
[4] = target: 6His-KCTD17 BTB domain (residues G20-K131), N-terminal hexahistidine tag kept (human); assay: SAXS; BTB domains alone, ~750 µM monomer; 50 mM HEPES, 150 mM NaCl, 0.5 mM TCEP; curves compared with those calculated from the crystal structures
[5] = target: 6His-KCTD17 BTB domain (residues G20-K131), N-terminal hexahistidine tag kept (human); assay: crystal structure; BTB domains alone, sitting-drop vapour diffusion at 20 and 4°C, data at 100 K; remark: listed apart in the source
[6] = target: 6xHis-tagged KCTD17 BTB + CTD multi-domain construct (residues G20-Q220), tag kept (human); assay: SEC; KCTD17 constructs alone, 6xHis-tagged or tag-cleaved; UV 280 nm traces; various running buffers (pH, salt)
[7] = target: human Cul3 N-terminal domain (NTD, residues M1-L388) with the engineered mutations I342R and L346D (human) (UniProt Q13618); assay: SEC; KCTD protein alone and mixed with Cul3 NTD at a molar ratio of 1 : 1; UV 280 nm traces; injected at 50 µM; 50 mM HEPES pH 7.5, 150 mM NaCl, 1 mM TCEP
Chain of human Cul3 N-terminal domain (NTD, residues M1-L388) with the engineered mutations I342R and L346D (human) (Q13618 1-388 I342R/L346D): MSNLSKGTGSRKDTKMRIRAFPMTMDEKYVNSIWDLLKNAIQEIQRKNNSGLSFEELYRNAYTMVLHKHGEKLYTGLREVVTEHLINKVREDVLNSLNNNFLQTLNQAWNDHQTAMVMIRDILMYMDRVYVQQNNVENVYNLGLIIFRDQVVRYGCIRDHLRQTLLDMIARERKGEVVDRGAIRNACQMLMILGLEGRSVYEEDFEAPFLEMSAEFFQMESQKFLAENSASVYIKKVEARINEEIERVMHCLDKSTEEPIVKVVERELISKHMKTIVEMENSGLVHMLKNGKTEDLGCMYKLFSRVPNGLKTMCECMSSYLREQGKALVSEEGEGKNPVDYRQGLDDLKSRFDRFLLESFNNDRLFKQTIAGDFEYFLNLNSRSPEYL

[8] = target: KCTD17 BTB + CTD multi-domain construct (residues G20-Q220), tag cleaved (human); assay: as above
[9] = target: T1, KCTD17 BTB domain (residues G20-K131) as used in ITC (human); assay: ITC; KCTD17 in the cell, titrated with Cul3 NTD from the syringe; 15°C; 50 mM HEPES pH 7.5, 150 mM NaCl, 1 mM TCEP, 5% glycerol; single-binding site model
T1 sequence (Q8N5Z5 20-131, looked up): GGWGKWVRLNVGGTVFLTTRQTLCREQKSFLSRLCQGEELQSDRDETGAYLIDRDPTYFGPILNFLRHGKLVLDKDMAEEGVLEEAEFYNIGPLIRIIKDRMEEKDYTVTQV

[10] = target: T2, KCTD17 BTB domain (residues G20-K131) (human); assay: ITC; KCTD17 in the cell, titrated with Cul3 from the syringe; 15°C; 50 mM HEPES pH 7.5, 150 mM NaCl, 1 mM TCEP, 5% glycerol; single-binding site model
T2 sequence (Q8N5Z5 20-131, looked up): T1 sequence (Q8N5Z5 20-131, looked up)

[11] = target: KCTD17 BTB + CTD multi-domain construct (residues G20-Q220) (human); assay: as above
[12] = target: human SHKBP1 BTB domain (residues G18-S120) (human) (UniProt Q8TBC3); assay: SEC; KCTD protein alone and mixed with Cul3 NTD at a molar ratio of 1 : 1; UV 280 nm traces; injected at 50 µM; 50 mM HEPES pH 7.5, 150 mM NaCl, 1 mM TCEP

Substance: 6His-KCTD17 BTB domain (residues G20-K131), N-terminal hexahistidine tag kept (domain or fragment)
- stoichiometry N [1]: 60
- stoichiometry N [2]: 60
- stoichiometry N [3]: 5
- stoichiometry N [4]: 60
- stoichiometry N [5]: 60

Substance: 6xHis-tagged KCTD17 BTB + CTD multi-domain construct (residues G20-Q220), tag kept (domain or fragment)
- stoichiometry N [6]: 60

Substance: KCTD17 BTB + CTD multi-domain construct (residues G20-Q220), tag cleaved (domain or fragment)
- stoichiometry N (KCTD : Cul3 (5 : 5)) [7]: 1
- stoichiometry N [8]: 5

Substance: human Cul3 N-terminal domain (NTD, residues M1-L388) with the engineered mutations I342R and L346D (from UniProt Q13618 1-388) (domain or fragment)
- pKd [9]: 8.15
- Ka [10]: 1.41e+08 M⁻¹
- Ka [11]: 8.66e+07 M⁻¹
- pKd [11]: 7.92
- stoichiometry N [11]: 2.3

Substance: human SHKBP1 BTB domain (residues G18-S120) (from UniProt Q8TBC3 18-120) (domain or fragment)
- stoichiometry N [12]: 5
